The Immune Epitope Database (IEDB)

Tests used:
Test in all cases: IEDB peptide-MHC binding, purified MHC/competitive/radioactivity; filed as Kd, often an IC50 or EC50 that approximates it; ≥ and ≤ were set here for values at or beyond the usual limits of such assays
HLA-A*33:01 = biological target: HLA-A*33:01
HLA-A*31:01 = biological target: HLA-A*31:01
HLA-A*03:01 = biological target: HLA-A*03:01
HLA-A*11:01 = biological target: HLA-A*11:01
HLA-A*68:01 = biological target: HLA-A*68:01
[1] = source organism: Vaccinia virus WR
[2] = source organism: Lymphocytic choriomeningitis virus (strain Armstrong)
[3] = source organism: SARS coronavirus Tor2
[4] = source organism: Vaccinia virus Copenhagen
[5] = source organism: Lassa virus Josiah
[6] = source organism: Mammarenavirus juninense

Sequence	Kd (HLA-A*33:01; [1]) [nM]	Kd (HLA-A*31:01; [1]) [nM]	Kd (HLA-A*03:01; [1]) [nM]	Kd (HLA-A*11:01; [1]) [nM]	Kd (HLA-A*68:01; [1]) [nM]	also measured
FAYVMNIER	12.5	37.2	4340	65.5	0.38	
ATDYIASGQR	2110	197	148	73.2	192	
TTLLNETAK	8060	3560	201	13.1	10.2	
EMVDELVTR	94.3	28.5	≥ 78000	≥ 40900	2.54	
MSRVRISLIY	10600	3120	270	548	262	
MSRGYFEHMK	2170	22	31.8	7.24	8.88	
LMWNKQFIK	31.8	12.9	6.26	2.57	200	
SKFWYLEHAK						Kd (HLA-A*33:01; [2]): 879 nM; Kd (HLA-A*31:01; [2]): 1010 nM; Kd (HLA-A*03:01; [2]): 18800 nM; Kd (HLA-A*11:01; [2]): 5190 nM; Kd (HLA-A*68:01; [2]): ≥ 30600 nM
TLNVLAWLY						Kd (HLA-A*33:01; [3]): 7370 nM; Kd (HLA-A*31:01; [3]): 2720 nM; Kd (HLA-A*03:01; [3]): 36.5 nM; Kd (HLA-A*11:01; [3]): 25 nM; Kd (HLA-A*68:01; [3]): 13200 nM
DHVSTLLTWH						Kd (HLA-A*33:01; [2]): ≥ 70000 nM; Kd (HLA-A*31:01; [2]): 8610 nM; Kd (HLA-A*03:01; [2]): ≥ 22400 nM; Kd (HLA-A*11:01; [2]): ≥ 69700 nM; Kd (HLA-A*68:01; [2]): 12300 nM
DFAVSKGFFK						Kd (HLA-A*33:01; [3]): 50.1 nM; Kd (HLA-A*31:01; [3]): 1040 nM; Kd (HLA-A*03:01; [3]): 768 nM; Kd (HLA-A*11:01; [3]): 107 nM; Kd (HLA-A*68:01; [3]): 16.8 nM
LVTRKCPQKK	≥ 70000	≥ 70000	≥ 70100	15900	≥ 70200	
SVSIILANER	1640	655	2520	77.1	0.432	
CANGWIQYDK	≥ 27000	73.6	888	599	19.1	
DLTQIFEVY	938	1370	11100	463	857	
ALDGTFQRK	≥ 77700	≥ 37900	12.5	30.4	≥ 47200	
GFTATICLK						Kd (HLA-A*33:01; [4]): 467 nM; Kd (HLA-A*31:01; [4]): 1730 nM; Kd (HLA-A*03:01; [4]): 1890 nM; Kd (HLA-A*11:01; [4]): 40.3 nM; Kd (HLA-A*68:01; [4]): 81.5 nM

Sequence	Kd (HLA-A*33:01; [1]) [nM]	Kd (HLA-A*31:01; [1]) [nM]	Kd (HLA-A*03:01; [1]) [nM]	Kd (HLA-A*11:01; [1]) [nM]	Kd (HLA-A*68:01; [1]) [nM]	also measured
NLKQLPFFYY						Kd (HLA-A*33:01; [3]): ≥ 70000 nM; Kd (HLA-A*31:01; [3]): ≥ 70000 nM; Kd (HLA-A*03:01; [3]): ≥ 36000 nM; Kd (HLA-A*11:01; [3]): 5350 nM; Kd (HLA-A*68:01; [3]): ≥ 10000 nM
AIYVFCISLK						Kd (HLA-A*33:01; [3]): ≥ 48900 nM; Kd (HLA-A*31:01; [3]): 11300 nM; Kd (HLA-A*03:01; [3]): 161 nM; Kd (HLA-A*11:01; [3]): 489 nM; Kd (HLA-A*68:01; [3]): 8800 nM
PLTSLVITY	≥ 46800	1880	13900	≥ 22100	5600	
VTFLLLCGR						Kd (HLA-A*33:01; [5]): 132 nM; Kd (HLA-A*31:01; [5]): 18.4 nM; Kd (HLA-A*03:01; [5]): 3060 nM; Kd (HLA-A*11:01; [5]): 18.2 nM; Kd (HLA-A*68:01; [5]): 13.8 nM
VSDLYTSMR	4200	1310	2490	4650	651	
HLTKTDKKY	≥ 41900	9480	≥ 22900	1970	7290	
QQFANVISK	≥ 28300	1320	55.6	2.38	710	
SMQNCLLRLK						Kd (HLA-A*33:01; [3]): 725 nM; Kd (HLA-A*31:01; [3]): 18.1 nM; Kd (HLA-A*03:01; [3]): 9.94 nM; Kd (HLA-A*11:01; [3]): 17.8 nM; Kd (HLA-A*68:01; [3]): 1280 nM
YTISSESLVY	≥ 70000	≥ 27900	831	31.8	21.4	
PTKRCRLLK	≥ 23700	5310	1090	1040	≥ 22700	
MTLDDLAIK	2340	408	927	37.1	39.8	
SKQYIHCFRK						Kd (HLA-A*33:01; [6]): ≥ 26100 nM; Kd (HLA-A*31:01; [6]): 898 nM; Kd (HLA-A*03:01; [6]): 4500 nM; Kd (HLA-A*11:01; [6]): 1520 nM; Kd (HLA-A*68:01; [6]): 2540 nM
KAMLYIIRR	150	0.319	1200	14.5	19.8	
TTYDFLARK	8530	81.1	47.4	0.395	105	
GVIDTMRIY	11400	991	1680	85.7	3020	
FMVSVSDFR	219	67.2	3050	493	0.398	
ILARRPTPK						Kd (HLA-A*33:01; [4]): ≥ 67100 nM; Kd (HLA-A*31:01; [4]): 1560 nM; Kd (HLA-A*03:01; [4]): 1.31 nM; Kd (HLA-A*11:01; [4]): 46 nM; Kd (HLA-A*68:01; [4]): 1780 nM
